Literature values, collected in patent publication US10603364B2, “Lysosomal targeting and uses thereof” (Shire Human Genetic Therapies, Inc., priority 2014, dated 2020).

What was measured:
[1] = molecular target: M6P/IGF II receptor (cation-independent mannose-6-phosphate receptor) (Homo sapiens, UniProt P11717)
IGF-I receptor = IGF-I receptor (Homo sapiens, UniProt P08069)
Sequence of IGF-I receptor (P08069 31-736 limits assumed, species assumed): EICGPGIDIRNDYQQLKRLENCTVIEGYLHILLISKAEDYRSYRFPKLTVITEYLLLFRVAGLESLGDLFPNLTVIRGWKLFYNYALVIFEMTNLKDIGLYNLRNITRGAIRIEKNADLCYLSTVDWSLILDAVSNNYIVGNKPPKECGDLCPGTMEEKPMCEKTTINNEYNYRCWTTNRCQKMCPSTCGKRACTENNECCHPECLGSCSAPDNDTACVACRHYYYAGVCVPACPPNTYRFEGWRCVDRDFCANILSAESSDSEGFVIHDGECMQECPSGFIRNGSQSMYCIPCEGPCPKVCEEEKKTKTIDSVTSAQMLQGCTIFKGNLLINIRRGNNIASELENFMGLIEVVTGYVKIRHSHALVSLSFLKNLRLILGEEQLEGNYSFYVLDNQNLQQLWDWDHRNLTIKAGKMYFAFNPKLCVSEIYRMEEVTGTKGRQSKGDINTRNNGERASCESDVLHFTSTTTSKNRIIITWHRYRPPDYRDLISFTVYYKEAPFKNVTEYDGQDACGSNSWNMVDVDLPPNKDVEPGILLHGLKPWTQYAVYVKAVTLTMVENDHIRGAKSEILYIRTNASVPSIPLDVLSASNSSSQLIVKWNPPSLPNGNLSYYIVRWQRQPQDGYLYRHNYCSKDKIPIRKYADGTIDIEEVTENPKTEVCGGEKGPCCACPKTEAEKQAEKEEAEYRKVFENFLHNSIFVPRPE
Sequence of IGF-I receptor (P08069 741-1367 partner limits assumed, species assumed): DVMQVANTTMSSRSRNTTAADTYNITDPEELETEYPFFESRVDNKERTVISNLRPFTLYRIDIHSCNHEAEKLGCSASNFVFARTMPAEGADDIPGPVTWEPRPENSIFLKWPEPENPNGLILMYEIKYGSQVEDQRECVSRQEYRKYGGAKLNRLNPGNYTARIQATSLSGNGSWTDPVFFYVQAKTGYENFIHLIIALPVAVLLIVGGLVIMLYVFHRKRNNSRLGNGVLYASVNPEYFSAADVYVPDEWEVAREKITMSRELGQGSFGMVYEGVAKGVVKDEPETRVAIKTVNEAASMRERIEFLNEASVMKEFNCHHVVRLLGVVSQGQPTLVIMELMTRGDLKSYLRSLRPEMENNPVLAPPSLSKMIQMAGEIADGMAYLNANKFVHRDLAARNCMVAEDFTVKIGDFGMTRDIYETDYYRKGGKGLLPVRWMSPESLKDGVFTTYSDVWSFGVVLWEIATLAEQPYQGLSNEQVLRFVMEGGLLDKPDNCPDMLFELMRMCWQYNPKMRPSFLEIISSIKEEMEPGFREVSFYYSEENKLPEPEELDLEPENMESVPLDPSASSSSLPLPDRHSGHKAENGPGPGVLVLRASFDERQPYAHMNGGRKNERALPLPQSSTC

Sequence of M6P/IGF II receptor (cation-independent mannose-6-phosphate receptor) (P11717 41-2491): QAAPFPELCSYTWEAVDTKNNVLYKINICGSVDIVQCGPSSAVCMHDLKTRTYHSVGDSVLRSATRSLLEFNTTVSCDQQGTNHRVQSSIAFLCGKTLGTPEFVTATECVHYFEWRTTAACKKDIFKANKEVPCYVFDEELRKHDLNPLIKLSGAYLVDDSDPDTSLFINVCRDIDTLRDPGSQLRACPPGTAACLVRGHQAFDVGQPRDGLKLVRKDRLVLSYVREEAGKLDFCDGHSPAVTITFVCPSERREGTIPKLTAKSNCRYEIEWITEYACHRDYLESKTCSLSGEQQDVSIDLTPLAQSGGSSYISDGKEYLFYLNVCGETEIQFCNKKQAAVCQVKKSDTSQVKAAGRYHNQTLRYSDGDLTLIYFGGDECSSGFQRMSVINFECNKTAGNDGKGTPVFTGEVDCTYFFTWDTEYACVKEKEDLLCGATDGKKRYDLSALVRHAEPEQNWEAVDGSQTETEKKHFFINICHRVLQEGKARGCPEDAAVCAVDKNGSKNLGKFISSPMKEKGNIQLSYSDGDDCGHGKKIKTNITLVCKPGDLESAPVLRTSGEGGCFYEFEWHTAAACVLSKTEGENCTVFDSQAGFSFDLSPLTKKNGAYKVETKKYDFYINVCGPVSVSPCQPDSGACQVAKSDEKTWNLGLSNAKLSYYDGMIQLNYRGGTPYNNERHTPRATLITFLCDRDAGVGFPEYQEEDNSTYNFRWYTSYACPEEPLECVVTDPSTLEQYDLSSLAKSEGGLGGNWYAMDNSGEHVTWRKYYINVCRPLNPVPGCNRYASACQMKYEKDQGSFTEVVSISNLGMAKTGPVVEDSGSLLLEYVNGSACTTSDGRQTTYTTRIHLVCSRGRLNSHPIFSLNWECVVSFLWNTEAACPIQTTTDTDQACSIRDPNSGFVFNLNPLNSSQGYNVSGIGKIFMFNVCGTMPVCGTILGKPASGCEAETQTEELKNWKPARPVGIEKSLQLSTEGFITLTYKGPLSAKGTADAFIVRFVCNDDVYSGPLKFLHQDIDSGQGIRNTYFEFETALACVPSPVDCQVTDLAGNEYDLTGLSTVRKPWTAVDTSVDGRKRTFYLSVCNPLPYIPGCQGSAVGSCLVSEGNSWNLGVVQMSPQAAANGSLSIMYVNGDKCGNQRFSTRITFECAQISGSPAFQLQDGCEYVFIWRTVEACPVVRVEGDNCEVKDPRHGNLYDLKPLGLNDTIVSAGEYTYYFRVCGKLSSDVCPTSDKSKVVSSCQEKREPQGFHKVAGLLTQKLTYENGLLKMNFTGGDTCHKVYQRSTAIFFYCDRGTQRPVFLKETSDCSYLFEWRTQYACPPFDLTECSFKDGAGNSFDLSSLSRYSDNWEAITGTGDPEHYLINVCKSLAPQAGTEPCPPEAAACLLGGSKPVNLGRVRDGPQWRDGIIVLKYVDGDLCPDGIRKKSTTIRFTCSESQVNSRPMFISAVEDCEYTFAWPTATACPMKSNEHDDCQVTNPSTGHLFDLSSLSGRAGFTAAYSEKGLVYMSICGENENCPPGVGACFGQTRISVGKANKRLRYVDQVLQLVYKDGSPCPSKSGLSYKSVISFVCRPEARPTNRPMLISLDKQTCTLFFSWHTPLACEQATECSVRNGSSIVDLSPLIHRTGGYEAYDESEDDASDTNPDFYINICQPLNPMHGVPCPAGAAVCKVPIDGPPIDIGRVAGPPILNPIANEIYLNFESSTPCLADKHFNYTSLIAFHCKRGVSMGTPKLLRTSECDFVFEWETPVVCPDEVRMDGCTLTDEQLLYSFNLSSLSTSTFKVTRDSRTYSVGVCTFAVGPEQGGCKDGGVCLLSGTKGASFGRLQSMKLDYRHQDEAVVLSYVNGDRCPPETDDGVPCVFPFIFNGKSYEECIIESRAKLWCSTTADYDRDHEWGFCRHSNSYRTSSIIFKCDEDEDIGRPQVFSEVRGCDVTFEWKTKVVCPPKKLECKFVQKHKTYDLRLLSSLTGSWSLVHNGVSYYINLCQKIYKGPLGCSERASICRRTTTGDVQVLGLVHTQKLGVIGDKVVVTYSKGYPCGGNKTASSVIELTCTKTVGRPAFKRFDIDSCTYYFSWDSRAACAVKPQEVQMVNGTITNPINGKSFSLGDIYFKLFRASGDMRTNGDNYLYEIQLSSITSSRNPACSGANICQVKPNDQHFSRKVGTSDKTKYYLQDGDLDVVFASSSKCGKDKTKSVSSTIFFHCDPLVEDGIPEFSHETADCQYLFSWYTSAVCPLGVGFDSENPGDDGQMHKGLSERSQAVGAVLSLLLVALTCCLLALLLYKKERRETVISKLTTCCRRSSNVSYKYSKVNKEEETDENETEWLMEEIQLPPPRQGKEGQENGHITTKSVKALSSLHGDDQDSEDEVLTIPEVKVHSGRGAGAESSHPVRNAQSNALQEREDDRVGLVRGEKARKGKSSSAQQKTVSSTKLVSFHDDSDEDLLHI

higher affinity for M6P/IGF II receptor compared to full-length IGF-II [1]: 2-10 fold | decrease in ability to bind IGF-I receptor compared to full-length IGF-II (IGF-I receptor): 30 fold
Substance: IGF-II sequence containing amino acid 8-67: amino acid residues 8-67 of the Insulin-like Growth Factor II peptide sequence, SEQ ID NO:21
